Experiment: soluble fraction after stress (log2 fold change); higher = more stays soluble; pooled small domains, quantitative proteomics
Settings: stress: pH 4
In short: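 Values are on a log2 scale, where higher means more of the domain stayed soluble after pH 4 stress. They are fold changes in the soluble amount of each domain from pooled custom libraries, measured by high-throughput quantitative proteomics. The fold change is taken to reflect aggregation propensity.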

| Sequence | soluble fraction (log2) |
| --- | --- |
| HMQKIEKVDYGTFLKMIENGEIDQVNLTEKKISFTTDKDAETVYETGRVEDPNIVDRLYQADVEFTQEI | -0.884 |
| HMVAESGLPPAFRSTWRHIMQTRGAQLDVLAMRTGTDAASLQKQLHAMELGGWVRRMPGGWYVPLK | -0.1 |
| HMTVVHRQVHLQPDQGAFRAALYSHKAVLSEQTDDQGAINLEIRLPESDFLRLLNSSGLKLQDLVP | -0.512 |
| HMALRFMAYGRINGTNVHFRTGASASTASLGRYSRGTEFGVYDKIGGWYRVRLLSTGQEGYVYSRYLTLTG | -0.0807 |
| HMNRPYVELFSGLGQEEAQQIVQKLQEDEVDYKFSGDSTILVKEDVVDQTKATLVQEGYPKS | -0.392 |
| HMHETMGQIIKRLRKERGLTQESLAERLGVTFQAVSKWETDAGMPDVSQIVPLANAFGVRTDVLFGLEGRD | 0.187 |
| HMDINLGIGPLVKKYRTIKGYSIRELARNINVTASMLSQIERDIVNPSINTLKAISVELGVPMYKFFM | -0.217 |
| HMSKPTLTLKSNAYPYNLNGERINNYLGFTYIKKGATLNYQGSKRINGQNYYYIGDGAYIKNTTVGSTNN | ≥ 0.43 |
| HMALSGTVQNFAGGIMILIFRPFKTGDYIEALGYFGKVSEVNIVSTKLRTFDNKTIILPNGALSNGNIQNY | -0.775 |
| HMPQNLQDQLFELILSRYPRRADAVEDLANILHLGKDPVYRRLRGDTFLSPLEISTLALHFRISLDALIV | -1.51 |
| HMDSGINVWASAEGLTITADKDTTVYVYDIYGRTIHTSEVKAGTSDIAINTKGIVIVKANGYTKKII | -0.76 |
| HMNPFLELTEREMDVLRLIAIGRNNQEIASELVISEKTVKTHITNIFSKLHFKDRTQAAAYAWQSGIVR | -1.07 |
| HMTFPIDINRADTEQLTALPGIGEVLAKRIIAYREENGSFLSTDELKNVEGIGEKRLEAIVDLITIG | -0.935 |
| HMQRDELRYDQFLTALQNKEFTQLNVRFDDYTYLVTGTFQSGRPFSTRGPVSEEFIRLIESSGVQVTWLPM | -1.28 |
| HMKTTKLEELDMQKEFILKNGKYGFGVYIGGKYIGLTDIGTVNSFKDSLQLPVVSLSDIDFKTFAEKF | -1.34 |
| HMPFNLKSLADRLSHVFPGLVKMRDDIGAIIVMDKIKVTEHGVTEGGGLAADRVRAVYNEFIKEY | 0.334 |
| HMSGDYRPLYPNLPESEKSEAFNLLAGSALPARLDDRTGDIMVPADRYYEARMILANAGFAD | 0.053 |
| HMGQKNEDESLAKFYVHKKGNQYGPYSLIQIREYLKNNSFSLDDLASWDGQSWKKISQIPNLN | 0.182 |
| HMTSDADSLRDKTGYVAEQVTSKGGKVNLYDGGFDSLYSARSTGETISTGTEIRVVDPGGGNMLVVEPV | -0.356 |
| HMQNKFLDIVGEIEVKAVDYYLLKDTSGLVIKFPKNLVFANGLKIADNKIGLTVSLYGAWVHEET | -0.498 |
| HMKLGYTVHGNVVTVKAVANGISLYNTIGQKVAESTDGQTVKAPAHGVYILSVQGKSGSRETAKIVI | 0.114 |
| HMHKFMEQNQDRRLSRMKELIGILSEAAKTYYQESREIMSNFQYDRMYDELLELEKETGVVMAGSPTQKV | -0.98 |
| HMHHSGLRQSQFDEISRQIRSLLEMESLSLQELKTRMEDVPEEQLTKVVSYLLSEEIIRQENGRLQ | -1.35 |
| HMSMVGSVNKQGRPFALLRVDNLLYQVKVGDYLGQNYGRITQIDETQIALREIVQDAAGEWIERPGVLQL | -0.256 |
| HMSEFAYPISLNGKTKFNLALSLALTKEEIEKEVLANADVQKFLNGQTPKKLIVVPGKIVNVV | 0.123 |
| HMPELSPEERAIIETLQKNNDLQVNIIAIKTGMDMGSLSAVLFDLEMKGLVKLLAGGMYHLI | -0.112 |
| HMSDPASLQRRLMSDPELTARILDSPFTRSLLDDPNLLRQMVNANPQLRRAMDANPQLRHAL | -0.261 |
| HMKDNIRSILEDIPNIGPGRRRALLKHFGSIEAIRRASLEDLIKVDGMNRNAALSIMEYFGM | -0.24 |

| Sequence | soluble fraction (log2) |
| --- | --- |
| HMNADAIVGRTGVVTEAIAADGFGRVQIDGDSWKAKASGNNGIDVGAKVRVLRIDSIILTVEK | 0.059 |
| HMDTSKIDYSEFITMLDKGEVESVVLKSDTLTVTLKHGTGMAAQTKTVTLMEDLSELTKRLEKAGVKSFDK | 0.176 |
| HMDGFVFVMPIKETRMFSVNDERPLVGIVKYSNGEFEKEQLIGFRPNSEYEFIIEGQRLYRVPVNSITIK | -1.25 |
| HMKIGIYPGTFDPITHGHTDIIRRSLRVFDKVVVAVAPNPSKHPLFTLTERLEMIRIVMKELEHVEVT | 0.117 |
| HMQLASILDDIPGIGKKRKENLLTHFGSFSKIQSADIDALAEVPGISRDLAETIHTYLKTHQ | -0.0521 |
| HMSAEGPALADWVVRDAHSIGAKITNSVAQLLIDRVGHNQQLLHNELQKLALVQTDISAELVKTMSHY | -0.0595 |
| HMGTIEQAFKGKAPGSAHLYDRARAVLAGGVTHDTRIHAPFPIMVQRALGARKWDVDGNEYIDY | -0.259 |
| HMPGMLVVYVTGAVRQPGRMVTLAAGSRVSDAIDAAGGLADDADAQALNLSARLNDGDLVHVPSALD | -0.227 |
| HMGFSDDEHNALADADLKKALEVTTNKSETQYNIAKLIYSYIISLGDKKPYGDWSYDKALSIIHDA | -0.00141 |
| HMEFNDLNDDEKAILHIMYNTGEKMTTALAARITNRGRNFASKLLKSLVKKEILEWHGTSKQDRNQYYTLA | -0.337 |
| HMANAGKFDSDMGEKINFPGNRVSLTPSELEAARELAAIMGDRFFSQLIPTTSKVTVTEMLQSLK | -0.849 |
| HMENFKVFMKAVQEVSPVPVRFDEISSGAKGYYSNTEKEIVIQNGMSESQTMKTGIHEVTHAMLHDRDF | 0.22 |
| HMDMSDFEVVRDMYLTGKVWNAGDIVEAKGITGEVVRKGTNYLSFVDKNGKVHKAWLHEIEL | -0.968 |
| HMSHSDMEEWTDAVRSRRKKLGLTQVQIARRLGVTSHHFSQIESGRTIPSASLQIEIDRLLKNWND | 0.0462 |
| HMAVTNLTAKQISDTRWRVTWDSTLASPTYYVYRDGLLMMQTRQELYEFDAARGEQVQIDVLDDMAAAPAE | -0.459 |
| HMDNEYDKVYQAALSKLEGYPRSSITTAVIKDVVAQTIKYFEIKNFGYEDTIINQLQSAFTVKSSS | 0.0114 |
| HMDASKVKIEDLGLSTRTENALVAASIRTAGGLARKSEMDLLSTDGLGEKGITEIKKALSDLGLELK | 0.246 |
| HMGTWKKIGTMTATVNDLYVRETPNGYIMGFINKGTVVEVDGKTTGKWTHAKVEGIGVGWIWTGYLDK | 0.161 |
| HMQLSMLPYGFARRHGVLLVEQDEQPTLIHRAGITATVIAEVQRVAGQIDAWRLVDDARFDQQLAEVYRD | -1.41 |
| HMVDTSDLPAIVEKVFADNPEQVNDILNGKDRVKGFLVGQIMKATRGQAPPDEVNKLIDATLEKMKAA | 0.188 |
| HMDRSLYVGDAVGFDSARGLMEIEVKNKFSVVAVSLKKKPSGNFITPLLRMEKKKGEAVTVAPGSGHR | -0.141 |
| HMHGQGTYTSPDGTKYVGDWQDEKMHGQGTYTYPDGMKFVGEFKDNKPWNGTGYDKYGNVKATFSNGVGKS | 0.22 |
| HMVGMDRYFKIKNIKDSSAAFERDYILHFLKENDWMVSKTAQMIGLERTTLYKKIKQLGLASMLEN | -0.386 |
| HMAEPYDERKVMEQMIPKGKNTIVAHLGHLKDHGETGYLQEALSYLRERESELGFDLKEVRALVHN | -0.223 |
| HMPLSDAEKAAAIATQAKERALKLSPEMISYLLRHASRDMRTLSMLVVALDQYTLEQKRPVTLPLLRELLS | -0.0153 |
| HMLDLVSIGKRIKAERQKNGLTQEALAERIEVSAHYVYELERGLKAMSVPILLRMSEVLHTSTDYLLF | -0.48 |
| HMSIAKIIGDRIRAYRNQKGWSQEYLAEKADVHHTYIGQLERGEKNATIESISKIAGALGVSLSRLFEN | 0.192 |

Reference: the domain aggregation screens of Martell et al. (2025)
